Reference: patent publication US20230416330A1, “Optimized GIP Peptide Analogues” (Antag Therapeutics ApS, priority 2019, published 2023)
Starred links: 1 amine or outer side, 2 acyl side, 3 side chain; linkers in the order of their positions; H or OH if unused. Non-standard residues stand in square brackets, D forms with d. Groups on a side chain read outwards from the residue. No end group written: not given here. *: point of attachment. C18 diacid = O=C(O)CCCCCCCCCCCCCCCCC(=O)*; C16 diacid = O=C(O)CCCCCCCCCCCCCCC(=O)*; γGlu = O=C(O)[C@H](CCC(=O)[*:2])N[*:1]; Glutaryl = O=C(CCCC(=O)[*:2])[*:1]; AEEA = NCCOCCOCC(=O)O; Aib = CC(C)(N)C(=O)O

T1: human GIP receptor (human, UniProt P48546 22-466)
T1 sequence (looked up): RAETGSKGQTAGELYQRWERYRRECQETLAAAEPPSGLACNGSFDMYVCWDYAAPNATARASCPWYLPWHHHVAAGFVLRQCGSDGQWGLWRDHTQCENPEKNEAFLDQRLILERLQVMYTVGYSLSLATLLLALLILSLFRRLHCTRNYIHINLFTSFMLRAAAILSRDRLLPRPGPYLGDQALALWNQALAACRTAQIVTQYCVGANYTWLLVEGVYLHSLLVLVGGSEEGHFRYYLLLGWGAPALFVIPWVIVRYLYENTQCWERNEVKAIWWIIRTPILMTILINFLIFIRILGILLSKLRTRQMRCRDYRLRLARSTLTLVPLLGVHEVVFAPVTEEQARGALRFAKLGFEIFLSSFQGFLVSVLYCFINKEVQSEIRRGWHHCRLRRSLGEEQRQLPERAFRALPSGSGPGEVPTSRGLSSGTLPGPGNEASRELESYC


Molecular target: T1, human GIP receptor
Assay: cell-based or functional assay

Binder | cAMP antagonism % inhib (CisBio assay) [%] | cAMP antagonism nM (IC50, CisBio assay) [nM] | cAMP antagonism pIC50 (CisBio assay)
EGTFISEYSIAMEKIK(C16 diacid)QQEFVEWLLAQKPSSGAPPPS-OH (N-terminus assumed; SMILES CC[C@H](C)[C@H](NC(=O)[C@H](CO)NC(=O)[C@H](Cc1ccc(O)cc1)NC(=O)[C@H](CCC(=O)O)NC(=O)[C@H](CO)NC(=O)[C@@H](NC(=O)[C@H](Cc1ccccc1)NC(=O)[C@@H](NC(=O)CNC(=O)[C@@H](N)CCC(=O)O)[C@@H](C)O)[C@@H](C)CC)C(=O)N[C@@H](C)C(=O)N[C@@H](CCSC)C(=O)N[C@@H](CCC(=O)O)C(=O)N[C@@H](CCCCN)C(=O)N[C@H](C(=O)N[C@@H](CCCCNC(=O)CCCCCCCCCCCCCCC(=O)O)C(=O)N[C@@H](CCC(N)=O)C(=O)N[C@@H](CCC(N)=O)C(=O)N[C@@H](CCC(=O)O)C(=O)N[C@@H](Cc1ccccc1)C(=O)N[C@H](C(=O)N[C@@H](CCC(=O)O)C(=O)N[C@@H](Cc1c[nH]c2ccccc12)C(=O)N[C@@H](CC(C)C)C(=O)N[C@@H](CC(C)C)C(=O)N[C@@H](C)C(=O)N[C@@H](CCC(N)=O)C(=O)N[C@@H](CCCCN)C(=O)N1CCC[C@H]1C(=O)N[C@@H](CO)C(=O)N[C@@H](CO)C(=O)NCC(=O)N[C@@H](C)C(=O)N1CCC[C@H]1C(=O)N1CCC[C@H]1C(=O)N1CCC[C@H]1C(=O)N[C@@H](CO)C(=O)O)C(C)C)[C@@H](C)CC) [AT614] | 100 | 1.08 | 9

Molecular target: T1, human GIP receptor
Assay: cell-based or functional assay
Remark: another data set of the same source

Binder | nM (Kb, Gaddum assay, cAMP) [nM] | pKb (Gaddum assay, cAMP)
EGTFISEYSI[Aib]LDKIK([AEEA-AEEA-γGlu-C18 diacid])QQDFVEWLLAQKPSSGAPPPS-OH (N-terminus assumed; SMILES CC[C@H](C)[C@H](NC(=O)[C@H](CCCCN)NC(=O)[C@H](CC(=O)O)NC(=O)[C@H](CC(C)C)NC(=O)C(C)(C)NC(=O)[C@@H](NC(=O)[C@H](CO)NC(=O)[C@H](Cc1ccc(O)cc1)NC(=O)[C@H](CCC(=O)O)NC(=O)[C@H](CO)NC(=O)[C@@H](NC(=O)[C@H](Cc1ccccc1)NC(=O)[C@@H](NC(=O)CNC(=O)[C@@H](N)CCC(=O)O)[C@@H](C)O)[C@@H](C)CC)[C@@H](C)CC)C(=O)N[C@@H](CCCCNC(=O)COCCOCCNC(=O)COCCOCCNC(=O)CC[C@H](NC(=O)CCCCCCCCCCCCCCCCC(=O)O)C(=O)O)C(=O)N[C@@H](CCC(N)=O)C(=O)N[C@@H](CCC(N)=O)C(=O)N[C@@H](CC(=O)O)C(=O)N[C@@H](Cc1ccccc1)C(=O)N[C@H](C(=O)N[C@@H](CCC(=O)O)C(=O)N[C@@H](Cc1c[nH]c2ccccc12)C(=O)N[C@@H](CC(C)C)C(=O)N[C@@H](CC(C)C)C(=O)N[C@@H](C)C(=O)N[C@@H](CCC(N)=O)C(=O)N[C@@H](CCCCN)C(=O)N1CCC[C@H]1C(=O)N[C@@H](CO)C(=O)N[C@@H](CO)C(=O)NCC(=O)N[C@@H](C)C(=O)N1CCC[C@H]1C(=O)N1CCC[C@H]1C(=O)N1CCC[C@H]1C(=O)N[C@@H](CO)C(=O)O)C(C)C) [AT712] | 0.39 | 9.4
Glutaryl-GTFISEYSI[Aib]LEKIK([AEEA-AEEA-γGlu-C18 diacid])QQEFVEWLLAQKPSSGAPPPS-NH2 (SMILES CC[C@H](C)[C@H](NC(=O)[C@H](CCCCN)NC(=O)[C@H](CCC(=O)O)NC(=O)[C@H](CC(C)C)NC(=O)C(C)(C)NC(=O)[C@@H](NC(=O)[C@H](CO)NC(=O)[C@H](Cc1ccc(O)cc1)NC(=O)[C@H](CCC(=O)O)NC(=O)[C@H](CO)NC(=O)[C@@H](NC(=O)[C@H](Cc1ccccc1)NC(=O)[C@@H](NC(=O)CNC(=O)CCCC(=O)O)[C@@H](C)O)[C@@H](C)CC)[C@@H](C)CC)C(=O)N[C@@H](CCCCNC(=O)COCCOCCNC(=O)COCCOCCNC(=O)CC[C@H](NC(=O)CCCCCCCCCCCCCCCCC(=O)O)C(=O)O)C(=O)N[C@@H](CCC(N)=O)C(=O)N[C@@H](CCC(N)=O)C(=O)N[C@@H](CCC(=O)O)C(=O)N[C@@H](Cc1ccccc1)C(=O)N[C@H](C(=O)N[C@@H](CCC(=O)O)C(=O)N[C@@H](Cc1c[nH]c2ccccc12)C(=O)N[C@@H](CC(C)C)C(=O)N[C@@H](CC(C)C)C(=O)N[C@@H](C)C(=O)N[C@@H](CCC(N)=O)C(=O)N[C@@H](CCCCN)C(=O)N1CCC[C@H]1C(=O)N[C@@H](CO)C(=O)N[C@@H](CO)C(=O)NCC(=O)N[C@@H](C)C(=O)N1CCC[C@H]1C(=O)N1CCC[C@H]1C(=O)N1CCC[C@H]1C(=O)N[C@@H](CO)C(N)=O)C(C)C) [AT713] | 0.31 | 9.5
EGTFISEYSI[Aib]LEKIK([AEEA-AEEA-γGlu-C18 diacid])QQEFVEWLLAQKPSSGAPPPS-NH2 (N-terminus assumed; SMILES CC[C@H](C)[C@H](NC(=O)[C@H](CCCCN)NC(=O)[C@H](CCC(=O)O)NC(=O)[C@H](CC(C)C)NC(=O)C(C)(C)NC(=O)[C@@H](NC(=O)[C@H](CO)NC(=O)[C@H](Cc1ccc(O)cc1)NC(=O)[C@H](CCC(=O)O)NC(=O)[C@H](CO)NC(=O)[C@@H](NC(=O)[C@H](Cc1ccccc1)NC(=O)[C@@H](NC(=O)CNC(=O)[C@@H](N)CCC(=O)O)[C@@H](C)O)[C@@H](C)CC)[C@@H](C)CC)C(=O)N[C@@H](CCCCNC(=O)COCCOCCNC(=O)COCCOCCNC(=O)CC[C@H](NC(=O)CCCCCCCCCCCCCCCCC(=O)O)C(=O)O)C(=O)N[C@@H](CCC(N)=O)C(=O)N[C@@H](CCC(N)=O)C(=O)N[C@@H](CCC(=O)O)C(=O)N[C@@H](Cc1ccccc1)C(=O)N[C@H](C(=O)N[C@@H](CCC(=O)O)C(=O)N[C@@H](Cc1c[nH]c2ccccc12)C(=O)N[C@@H](CC(C)C)C(=O)N[C@@H](CC(C)C)C(=O)N[C@@H](C)C(=O)N[C@@H](CCC(N)=O)C(=O)N[C@@H](CCCCN)C(=O)N1CCC[C@H]1C(=O)N[C@@H](CO)C(=O)N[C@@H](CO)C(=O)NCC(=O)N[C@@H](C)C(=O)N1CCC[C@H]1C(=O)N1CCC[C@H]1C(=O)N1CCC[C@H]1C(=O)N[C@@H](CO)C(N)=O)C(C)C) [AT714] | 0.43 | 9.4
Glutaryl-GTFISDYSI[Aib]MDKIK(C16 diacid)QQDFVEWLLAQKPSSGAPPPS-OH [AT715] | 0.19 | 9.7
EGTFISEYSI[Aib]MEKIK(C16 diacid)QQDFVEWLLAQKPSSGAPPPS-OH (N-terminus assumed; SMILES CC[C@H](C)[C@H](NC(=O)[C@H](CCCCN)NC(=O)[C@H](CCC(=O)O)NC(=O)[C@H](CCSC)NC(=O)C(C)(C)NC(=O)[C@@H](NC(=O)[C@H](CO)NC(=O)[C@H](Cc1ccc(O)cc1)NC(=O)[C@H](CCC(=O)O)NC(=O)[C@H](CO)NC(=O)[C@@H](NC(=O)[C@H](Cc1ccccc1)NC(=O)[C@@H](NC(=O)CNC(=O)[C@@H](N)CCC(=O)O)[C@@H](C)O)[C@@H](C)CC)[C@@H](C)CC)C(=O)N[C@@H](CCCCNC(=O)CCCCCCCCCCCCCCC(=O)O)C(=O)N[C@@H](CCC(N)=O)C(=O)N[C@@H](CCC(N)=O)C(=O)N[C@@H](CC(=O)O)C(=O)N[C@@H](Cc1ccccc1)C(=O)N[C@H](C(=O)N[C@@H](CCC(=O)O)C(=O)N[C@@H](Cc1c[nH]c2ccccc12)C(=O)N[C@@H](CC(C)C)C(=O)N[C@@H](CC(C)C)C(=O)N[C@@H](C)C(=O)N[C@@H](CCC(N)=O)C(=O)N[C@@H](CCCCN)C(=O)N1CCC[C@H]1C(=O)N[C@@H](CO)C(=O)N[C@@H](CO)C(=O)NCC(=O)N[C@@H](C)C(=O)N1CCC[C@H]1C(=O)N1CCC[C@H]1C(=O)N1CCC[C@H]1C(=O)N[C@@H](CO)C(=O)O)C(C)C) [AT716] | 0.29 | 9.5
Glutaryl-GTFISEYSI[Aib]LEKIK(C16 diacid)QQEFVEWLLAQKPSSGAPPPS-OH (SMILES CC[C@H](C)[C@H](NC(=O)[C@H](CCCCN)NC(=O)[C@H](CCC(=O)O)NC(=O)[C@H](CC(C)C)NC(=O)C(C)(C)NC(=O)[C@@H](NC(=O)[C@H](CO)NC(=O)[C@H](Cc1ccc(O)cc1)NC(=O)[C@H](CCC(=O)O)NC(=O)[C@H](CO)NC(=O)[C@@H](NC(=O)[C@H](Cc1ccccc1)NC(=O)[C@@H](NC(=O)CNC(=O)CCCC(=O)O)[C@@H](C)O)[C@@H](C)CC)[C@@H](C)CC)C(=O)N[C@@H](CCCCNC(=O)CCCCCCCCCCCCCCC(=O)O)C(=O)N[C@@H](CCC(N)=O)C(=O)N[C@@H](CCC(N)=O)C(=O)N[C@@H](CCC(=O)O)C(=O)N[C@@H](Cc1ccccc1)C(=O)N[C@H](C(=O)N[C@@H](CCC(=O)O)C(=O)N[C@@H](Cc1c[nH]c2ccccc12)C(=O)N[C@@H](CC(C)C)C(=O)N[C@@H](CC(C)C)C(=O)N[C@@H](C)C(=O)N[C@@H](CCC(N)=O)C(=O)N[C@@H](CCCCN)C(=O)N1CCC[C@H]1C(=O)N[C@@H](CO)C(=O)N[C@@H](CO)C(=O)NCC(=O)N[C@@H](C)C(=O)N1CCC[C@H]1C(=O)N1CCC[C@H]1C(=O)N1CCC[C@H]1C(=O)N[C@@H](CO)C(=O)O)C(C)C) [AT717] | 0.17 | 9.8
EGTFISEYSIALEKIK(C16 diacid)QQEFVEWLLAQKPSSGAPPPS-OH [AT718] | 0.33 | 9.5
